Experimental findings from publication PMC9927256, “Structural and Functional Characterization of Rv0792c from Mycobacterium tuberculosis: Identifying Small Molecule Inhibitor against HutC Protein” (Microbiology Spectrum, 2022) are described below.

Changes are numbered by the printed parent chain.

Data set [1] has as its target T1, Rv0792c R49A R49A (Mycobacterium tuberculosis) (UniProt O86331).
T1 sequence: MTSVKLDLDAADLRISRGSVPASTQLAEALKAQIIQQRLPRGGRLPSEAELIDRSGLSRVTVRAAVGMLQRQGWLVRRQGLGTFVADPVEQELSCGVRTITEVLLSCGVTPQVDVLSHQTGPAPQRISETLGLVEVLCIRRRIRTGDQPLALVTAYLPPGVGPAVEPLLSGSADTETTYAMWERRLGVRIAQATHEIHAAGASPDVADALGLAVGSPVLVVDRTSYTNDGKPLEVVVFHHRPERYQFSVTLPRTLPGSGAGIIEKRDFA
Nature of the data set: ALISA (plate-immobilized protein).

Data set [2] addresses T2, Rv0792c G80D G80D (Mycobacterium tuberculosis) (UniProt O86331).
T2 sequence: T1 sequence with A49R, G80D
Nature of the data set: ALISA (plate-immobilized protein).

What is called Kd is the concentration at which binding is half-saturated. A higher Kd goes with lower affinity. Take “TCTAGTCATTCGTCATAATCCCATCTGTTTCTTCCTCCTTCCGT [Rv0792c_2 aptamer (also Rv0729c_2)]”: the Kd was 74 nM in data set [1] and 120 nM in data set [2].
